Reference: paper PMC4623440

Target: human VEGF-A165 (human)

Substance “FcD2, monospecific fusion of hinge, Fc, linker and VEGFR1 D2 (from UniProt P17948 129-229) (Fc fusion)” has an inhibition of VEGF-stimulated HUVEC growth (CellTiter-Glo) of 2.1 nM.
